{
  "source": "paper PMC9241672",
  "system": "His-ArgR2 (Lactiplantibacillus plantarum AR195)",
  "experiment": "BLI",
  "conditions": "ArgR2 256-4097 nM; BLI: 10 mM HEPES pH 8.0, 2 mM MgCl2, 0.1 mM EDTA, 200 mM KCl, 1 per mille (w/v) BSA and 2 per mille (v/v) Tween 20 in protein buffer; temperature not stated. …",
  "note": "pKd: −log10 of the molar value.",
  "data": [
    {"substance": "cla promoter probe", "values": [
      {"measurement": "pKd", "result": "> 12.00"}
    ]}
  ]
}
